Key:
[1] = target: chimeric hTSH/rLH-R receptor (RMc4), displayed on CHO-RMc4luc cells (human TSH receptor with a segment of rat LH receptor); assay: cell-based or functional assay
[2] = target: human TSH receptor (wild type), displayed on CHO-Rluc cells (human) (UniProt P16473); assay: cell-based or functional assay

Ratio of Signal/Negative, luciferase reporter, LH 455 mIU/ml on CHO-Mc4luc cells [1] | luciferase RLU, LH 455 mIU/ml on CHO-RMc4luc cells [1] [RLU] | Ratio of Signal/Negative, luciferase reporter, LH 455 mIU/ml on CHO-Rluc cells [2] | luciferase RLU, LH 455 mIU/ml on CHO-Rluc cells [2] [RLU] | Ratio of Signal/Negative, luciferase reporter, FSH 364 mIU/ml on CHO-Mc4luc cells [1] | luciferase RLU, FSH 364 mIU/ml on CHO-RMc4luc cells [1] [RLU] | Ratio of Signal/Negative, luciferase reporter, FSH 364 mIU/ml on CHO-Rluc cells [2] | luciferase RLU, FSH 364 mIU/ml on CHO-Rluc cells [2] [RLU] | Substance
0.9 | 1560 | 0.8 | 835 |  |  |  |  | human luteinizing hormone (from UniProt P01215 25-116; P01229 21-141) (ligand)
 |  |  |  | 0.6 | 1020 | 0.7 | 728 | human follicle stimulating hormone (from UniProt P01215 25-116; P01225 19-129) (ligand)
